Data published in publication PMC3384312 (Nucleic Acids Research, 2012).
Each block holds one binder with its values, some of them ahead of it. 5‑acetamidofluorescein = fluorescein label from 5-iodoacetamidofluorescein attached at Cys

Key:
MEF2A (1-95) [1] = molecular target: T1, MEF2A (1-95) (UniProt Q02078 1-95); assay: SPR
T1 sequence: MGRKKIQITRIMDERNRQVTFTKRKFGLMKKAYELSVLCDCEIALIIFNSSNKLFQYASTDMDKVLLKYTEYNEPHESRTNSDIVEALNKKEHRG

crystal structure = molecular target: the molecule itself; assay: crystal structure
MEF2A (1-95) [2] = molecular target: T1, MEF2A (1-95); assay: fluorescence polarisation

binding result (MEF2A (1-95) [1]): binds
B1: HDAC4 (AA 155-220) (domain or fragment)
chain: LKNKEKGKESAVASTEVKMKLQEFVLNKKKALAHRNLNHCISSDPRYWYGKTQHSSLDQSSPPQSG

B2: MEF2A (1-78) (domain or fragment)
chain: MGRKKIQITRIMDERNRQVTFTKRKFGLMKKAYELSVLCDCEIALIIFNSSNKLFQYASTDMDKVLLKYTEYNEPHES
binding result (crystal structure): binds

binding result (MEF2A (1-95) [2]): binds
B3: HDAC4 fragment (AA 155-218) labeled by 5-Iodoacetamidofluorescein via Cys194 (domain or fragment, UniProt P56524 155-218, looked up)
chain: LKNKEKGKESAVASTEVKMKLQEFVLNKKKALAHRNLNHC(5‑acetamidofluorescein)ISSDPRYWYGKTQHSSLDQSSPPQ
